Assay results taken from paper doi:10.1101/2025.08.01.667454 (bioRxiv, 2025).
Values belong to the binder of their own block, whether it stands above or below them.

B5: BAF60A^YLD+SWIB (BAF60A residues 144-407) (domain or fragment, human, UniProt Q96GM5 144-407, looked up)
chain: SQAYMDLLAFERKLDQTIMRKRLDIQEALKRPIKQKRKLRIFISNTFNPAKSDAEDGEGTVASWELRVEGRLLEDSALSKYDATKQKRKFSSFFKSLVIELDKDLYGPDNHLVEWHRTATTQETDGFQVKRPGDVNVRCTVLLMLDYQPPQFKLDPRLARLLGIHTQTRPVIIQALWQYIKTHKLQDPHEREFVICDKYLQQIFESQRMKFSEIPQRLHALLMPPEPIIINHVISVDPNDQKKTACYDIDVEVDDTLKTQMNSF

Tests used:
[1] = target: B5; experiment: ITC
[2] = target: B5; experiment: fluorescence polarisation
[3] = target: B5; experiment: fluorescence polarisation; remark: listed apart in the source
PU.1[61–270] = PU.1[61–270] (human, UniProt P17947 61-270); experiment: ITC
[4] = target: MBP-tagged full-length PU.1 (human, UniProt P17947 1-270); experiment: ITC
PU.1^FL S75A = PU.1^FL S75A (human, UniProt P17947 1-270, S75A); experiment: fluorescence polarisation

- binding result [2]: binds
B3: PU.1^60C-100 (peptide, UniProt P17947 60-100, looked up)
chain: CEFESFAENNFTELQSVQPPQLQQLYRHMELEQMHVLDTPM

- Kd [1]: 2.57 µM
- IC50 [2]: 2.37 µM
B6: PU.1[70–100] (peptide, UniProt P17947 70-100, looked up)
chain: FTELQSVQPPQLQQLYRHMELEQMHVLDTPM

Continued, binder first:

B1: PU.1[1–117] (domain or fragment, human, UniProt P17947 1-117, looked up)
chain: MLQACKMEGFPLVPPPSEDLVPYDTDLYQRQTHEYYPYLSSDGESHSDHYWDFHPHHVHSEFESFAENNFTELQSVQPPQLQQLYRHMELEQMHVLDTPMVPPHPSLGHQVSYLPRM
- Kd [1]: 2.8 µM

B2: PU.1[60–100] (peptide, UniProt P17947 60-100, looked up)
chain: SEFESFAENNFTELQSVQPPQLQQLYRHMELEQMHVLDTPM
- Kd [1]: 1.25 µM

B4: PU.1[60–100]^TMR (peptide, UniProt P17947 60-100, looked up)
chain: CEFESFAENNFTELQSVQPPQLQQLYRHMELEQMHVLDTPM
modifications: BODIPY TMR C5 maleimide on the cysteine introduced at position 60
- Kd [3]: 0.92 µM

Binder: B5
- Kd (PU.1[61–270]): 3.23 µM
- Kd [4]: 1.26 µM
- stoichiometry N [4]: 1
- binding result (PU.1^FL S75A): binds
